Test results taken from publication PMC2821024.

Molecular target: HuM7AIQ2 heavy chain, wild-type (human myosin VIIa Met1-Arg796, motor domain plus two IQ motifs) (human) (UniProt Q13402)
Assay: co-purification on anti-FLAG resin, SDS-PAGE densitometry

Chain of UniProt Q13402 (Q13402 1-796): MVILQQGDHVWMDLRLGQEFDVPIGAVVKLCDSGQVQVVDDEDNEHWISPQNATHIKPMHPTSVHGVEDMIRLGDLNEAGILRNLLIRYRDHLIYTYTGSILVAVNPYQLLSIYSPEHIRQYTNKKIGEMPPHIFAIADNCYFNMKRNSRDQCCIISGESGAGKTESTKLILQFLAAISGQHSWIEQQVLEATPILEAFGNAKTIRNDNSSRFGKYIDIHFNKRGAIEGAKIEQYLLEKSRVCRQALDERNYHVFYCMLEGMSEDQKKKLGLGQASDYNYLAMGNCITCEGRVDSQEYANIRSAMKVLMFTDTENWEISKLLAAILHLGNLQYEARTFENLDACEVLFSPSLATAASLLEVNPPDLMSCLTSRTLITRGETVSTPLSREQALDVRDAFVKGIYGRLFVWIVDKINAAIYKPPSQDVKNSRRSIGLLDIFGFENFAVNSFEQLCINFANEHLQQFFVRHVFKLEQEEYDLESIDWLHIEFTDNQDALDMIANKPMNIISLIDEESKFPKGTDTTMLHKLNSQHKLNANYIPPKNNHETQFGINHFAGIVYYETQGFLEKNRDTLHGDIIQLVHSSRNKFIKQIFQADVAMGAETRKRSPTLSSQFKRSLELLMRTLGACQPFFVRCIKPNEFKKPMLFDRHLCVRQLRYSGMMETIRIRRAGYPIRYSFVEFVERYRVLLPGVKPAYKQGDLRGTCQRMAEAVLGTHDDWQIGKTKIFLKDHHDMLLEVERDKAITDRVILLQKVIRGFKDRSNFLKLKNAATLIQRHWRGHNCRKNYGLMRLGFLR

“calmodulin (from UniProt P0DP23 1-149) (natural protein)” gave a stoichiometry N (calmodulin per heavy chain) of 1.53.
